Results as given in IntAct's records for PubMed 24434579.

B1: Seipin (Saccharomyces cerevisiae), Q06058 (parent)
chain: MKINVSRPLQFLQWSSYIVVAFLIQLLIILPLSILIYHDFYLRLLPADSSNVVPLNTFNILNGVQFGTKFFQSIKSIPVGTDLPQTIDNGLSQLIPMRDNMEYKLDLNLQLYCQSKTDHLNLDNLLIDVYRGPGPLLGAPGGSNSKDEKIFHTSRPIVCLALTDSMSPQEIEQLGPSRLDVYDEEWLNTIRIEDKISLESSYETISVFLKTEIAQRNLIIHPESGIKFRMNFEQGLRNLMLRKRFLSYIIGISIFHCIICVLFFITGCTAFIFVRKGQEKSKKHS
partner: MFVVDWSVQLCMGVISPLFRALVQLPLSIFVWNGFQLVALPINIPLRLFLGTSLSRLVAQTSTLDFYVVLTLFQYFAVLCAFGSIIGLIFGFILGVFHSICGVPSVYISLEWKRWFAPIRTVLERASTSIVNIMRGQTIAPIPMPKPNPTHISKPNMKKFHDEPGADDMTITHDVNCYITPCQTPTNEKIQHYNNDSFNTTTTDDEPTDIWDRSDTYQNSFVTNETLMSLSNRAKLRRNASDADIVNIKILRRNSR

Variants of: B1
Conditions: with ldb16_yeast LDB16, P25587

effect of a mutation on the interaction | Variant
decreasing interaction strength | MKINVSRPLQFLQWSSYIVVAFLIQLLIILPLSILIYHDFYLRLLPADSSNVVPLNTFNILNGVQFGTKFFQSIKSIPVGTDLPQTIDNGLSQLIPMRDNMEYKLDLNLQLYCQSKTDHLNLDNLLIDVYRGPGPLLGAPGGSNSKDEKIFHTSRPIVCLALTDSMSPQEIEQLGPSRLDVYDEEWLNTIRIEDKISLESSYETISVFLKTEIAQRNLIIHPESPIKFRMNFEQGLRNLMLRKRFLSYIIGISIFHCIICVLFFITGCTAFIFVRKGQEKSKKHS [G225P]
